Legend:
RpnAL = molecular target: T1, RpnAL (E. coli, UniProt P31667 1-292); assay: SEC-MALS
T1 sequence (looked up): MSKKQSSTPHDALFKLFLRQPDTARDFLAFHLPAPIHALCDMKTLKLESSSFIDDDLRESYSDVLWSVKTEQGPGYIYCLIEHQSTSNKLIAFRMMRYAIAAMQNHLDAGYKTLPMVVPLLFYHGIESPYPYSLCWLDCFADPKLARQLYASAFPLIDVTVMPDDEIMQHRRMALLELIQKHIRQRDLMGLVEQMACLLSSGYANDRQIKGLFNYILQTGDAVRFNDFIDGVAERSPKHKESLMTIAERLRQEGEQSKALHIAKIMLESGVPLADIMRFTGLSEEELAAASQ

SEC-MALS = molecular target: the molecule itself; assay: SEC-MALS

stoichiometry N (RpnAL): 1 RpnAS per RpnAL (2:2)
Binder: MTIAERLRQEGEQSKALHIAKIMLESGVPLADIMRFTGLSEEELAAASQ (domain or fragment, E. coli, UniProt P31667 244-292, looked up) [RpnAS]
stoichiometry N (SEC-MALS): 2

— article PMC10400941 (Proceedings of the National Academy of Sciences of the …, 2023)
